Experimental data reported in the supplement of paper PMC10567573.

B1: CLPTM1 (parent)
chain: LGCYAVYSLLYLEHKGWYSWVLSM

Variants of: B1
Test: protein stability index of a GFP-peptide fusion (GPS, HEK-293T) (PSI 1-6); higher = more stable
Conditions: c terminus: a fixed tail appended
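Note: lentivirally expressed fusions sorted by FACS into six bins by GFP to DsRed ratio, PSI derived from sequencing read proportions per bin multiplied by bin number.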

Variant	protein stability index
LGCYWVYSLLYLEHKGWYSWVLSM	4.06
LGCYTVYSLLYLEHKGWYSWVLSM	2.57
LGCYLVYSLLYLEHKGWYSWVLSM	4.56
LGCYIVYSLLYLEHKGWYSWVLSM	3.28
LGCYKVYSLLYLEHKGWYSWVLSM	2.91
LGCYRVYSLLYLEHKGWYSWVLSM	2.43
LGCYSVYSLLYLEHKGWYSWVLSM	3.5
LGCYNVYSLLYLEHKGWYSWVLSM	4.03
LGCYHVYSLLYLEHKGWYSWVLSM	2.82
LGCYMVYSLLYLEHKGWYSWVLSM	2
LGCYAVYSGLYLEHKGWYSWVLSM	1.77
LGCYAVYSHLYLEHKGWYSWVLSM	1.71
LGCYAVYSCLYLEHKGWYSWVLSM	2.03
LGCYAVYSYLYLEHKGWYSWVLSM	2.36
LGCYAVYSTLYLEHKGWYSWVLSM	1.75
LGCYAVYSILYLEHKGWYSWVLSM	2.15
LGCYAVYSRLYLEHKGWYSWVLSM	2.18
LGCYAVYSWLYLEHKGWYSWVLSM	2.7
LGCYAVYSQLYLEHKGWYSWVLSM	2.67
LGCYAVYSFLYLEHKGWYSWVLSM	4.07
LGCYAVYSDLYLEHKGWYSWVLSM	3.48
LGCYAVYSPLYLEHKGWYSWVLSM	4.54
LGCYAVYSVLYLEHKGWYSWVLSM	1.94
LGCYAVYSSLYLEHKGWYSWVLSM	2.77

Variant	protein stability index
LGCYAVYSKLYLEHKGWYSWVLSM	2.65
LGCYAVYSMLYLEHKGWYSWVLSM	2.92
LGCYAVYSNLYLEHKGWYSWVLSM	3.39
LGCYAVYSELYLEHKGWYSWVLSM	2.13
LGCYAVYSLLYLEHPGWYSWVLSM	3.92
LGCYAVYSLLYLEHVGWYSWVLSM	2.65
LGCYAVYSLLYLEHIGWYSWVLSM	2.89
LGCYAVYSLLYLEHCGWYSWVLSM	2.9
LGCYAVYSLLYLEHTGWYSWVLSM	4.26
LGCYAVYSLLYLEHMGWYSWVLSM	3.9
LGCYAVYSLLYLEHFGWYSWVLSM	2.41
LGCYAVYSLLYLEHAGWYSWVLSM	1.32
LGCYAVYSLLYLEHWGWYSWVLSM	2.46
LGCYAVYSLLYLEHHGWYSWVLSM	3.75
LGCYAVYSLLYLEHYGWYSWVLSM	2.57
LGCYAVYSLLYLEHNGWYSWVLSM	3.11
LGCYAVYSLLYLEHQGWYSWVLSM	1.25
LGCYAVYSLLYLEHLGWYSWVLSM	3.23
LGCYAVYSLLYLEHSGWYSWVLSM	2.73
LGCYAVYSLLYLEHGGWYSWVLSM	1.81
LGCYAVYSLCYLEHKGWYSWVLSM	2.87
LGCYAVYSLHYLEHKGWYSWVLSM	2.84
LGCYAVYSLPYLEHKGWYSWVLSM	2.45
LGCYAVYSLMYLEHKGWYSWVLSM	2.82

Variant	protein stability index
LGCYAVYSLWYLEHKGWYSWVLSM	2.32
LGCYAVYSLNYLEHKGWYSWVLSM	3.35
LGCYAVYSLIYLEHKGWYSWVLSM	3.43
LGCYAVYSLSYLEHKGWYSWVLSM	1.76
LGCYAVYSLGYLEHKGWYSWVLSM	3.1
LGCYAVYSLRYLEHKGWYSWVLSM	1.94
LGCYAVYSLYYLEHKGWYSWVLSM	2.5
LGCYAVYSLFYLEHKGWYSWVLSM	3.57
LGCYAVYSLDYLEHKGWYSWVLSM	3.21
LGCYAVYSLQYLEHKGWYSWVLSM	3.9
LGCYAVYSLTYLEHKGWYSWVLSM	2.74
LGCYAVYSLKYLEHKGWYSWVLSM	3.39
LGCYAVYSLAYLEHKGWYSWVLSM	2.39
LGCYANYSLLYLEHKGWYSWVLSM	2.73
LGCYAIYSLLYLEHKGWYSWVLSM	3.34
LGCYAHYSLLYLEHKGWYSWVLSM	2.31
LGCYARYSLLYLEHKGWYSWVLSM	2.3
LGCYAFYSLLYLEHKGWYSWVLSM	3.45
LGCYAGYSLLYLEHKGWYSWVLSM	2.72
LGCYAWYSLLYLEHKGWYSWVLSM	1.84
LGCYAKYSLLYLEHKGWYSWVLSM	2.83
LGCYAMYSLLYLEHKGWYSWVLSM	2.22
LGCYACYSLLYLEHKGWYSWVLSM	4.28
LGCYATYSLLYLEHKGWYSWVLSM	2.61

Variant	protein stability index
LGCYALYSLLYLEHKGWYSWVLSM	3.28
LGCYAAYSLLYLEHKGWYSWVLSM	3.13
LGCYAPYSLLYLEHKGWYSWVLSM	2.49
LGCYASYSLLYLEHKGWYSWVLSM	2.76
LGCYAEYSLLYLEHKGWYSWVLSM	2.84
LGCYADYSLLYLEHKGWYSWVLSM	3.58
LGCYAVYSLLTLEHKGWYSWVLSM	2.69
LGCYAVYSLLELEHKGWYSWVLSM	3.13
LGCYAVYSLLQLEHKGWYSWVLSM	3.22
LGCYAVYSLLHLEHKGWYSWVLSM	2.09
LGCYAVYSLLGLEHKGWYSWVLSM	4.08
LGCYAVYSLLMLEHKGWYSWVLSM	2.05
LGCYAVYSLLKLEHKGWYSWVLSM	2.63
LGCYAVYSLLNLEHKGWYSWVLSM	2
LGCYAVYSLLILEHKGWYSWVLSM	3
LGCYAVYSLLPLEHKGWYSWVLSM	2.2
LGCYAVYSLLFLEHKGWYSWVLSM	3.26
LGCYAVYSLLDLEHKGWYSWVLSM	2.36
LGCYAVYSLLSLEHKGWYSWVLSM	1.87
LGCYAVYSLLWLEHKGWYSWVLSM	2.68
LGCYAVYSLLYLELKGWYSWVLSM	2.4
LGCYAVYSLLYLEYKGWYSWVLSM	3.4
